Biological target: T1, aromatase (rat (endogenous in hypothalamus and …, UniProt P22443 1-508))
T1 sequence (looked up): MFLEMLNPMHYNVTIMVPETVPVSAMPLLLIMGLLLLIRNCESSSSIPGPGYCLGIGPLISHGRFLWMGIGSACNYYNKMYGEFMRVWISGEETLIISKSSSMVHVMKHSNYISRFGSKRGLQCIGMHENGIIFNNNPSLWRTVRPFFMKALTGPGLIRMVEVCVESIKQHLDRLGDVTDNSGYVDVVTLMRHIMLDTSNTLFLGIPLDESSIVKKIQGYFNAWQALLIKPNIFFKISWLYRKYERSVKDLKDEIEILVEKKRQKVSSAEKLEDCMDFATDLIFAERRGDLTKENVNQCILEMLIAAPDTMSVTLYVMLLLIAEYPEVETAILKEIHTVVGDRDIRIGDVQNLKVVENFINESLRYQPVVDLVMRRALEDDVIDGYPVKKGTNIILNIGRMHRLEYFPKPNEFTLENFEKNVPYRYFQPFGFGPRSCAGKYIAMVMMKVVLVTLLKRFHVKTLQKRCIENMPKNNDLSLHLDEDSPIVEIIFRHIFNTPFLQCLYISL
Assay: co-IP

fold more co-IPed with hypothalamic than with spinal aromatase: 5.4 fold
B1: protein phosphatase 5 (PP5) (enzyme, UniProt P53042 1-499, looked up)
chain: MAMAEGERTECAEPPRDEPPAEGTLKRAEELKTQANDYFKAKDYENAIKFYSQAIELNPSNAIYYGNRSLAYLRTECYGYALGDATRAIELDKKYIKGYYRRAASNMALGKFRAALRDYETVVKVKPNDKDAKMKYQECSKIVKQKAFERAIAGDEHRRSVVDSLDIESMTIEDEYSGPKLEDGKVTITFMKDLMQWYKDQKKLHRKCAYQILVQVKEVLCKLSTLVETTLKETEKITVCGDTHGQFYDLLNIFELNGLPSETNPYIFNGDFVDRGSFSVEVILTLFGFKLLYPDHFHLLRGNHETDNMNQIYGFEGEVKAKYTAQMYELFSEVFEWLPLAQCINGKVLIMHGGLFSEDGVTLDDIRKIERNRQPPDSGPMCDLLWSDPQPQNGRSVSKRGVSCQFGPDVTKAFLEENQLDYIIRSHEVKAEGYEVAHGGRCVTVFSAPNYCDQMGNKASYIHLQGSDLRPQFHQFTAVPHPNVKPMAYANTLLQLGMM

Reference: paper PMC9038631 (Journal of neuroendocrinology, 2022)
